Experimental findings from US11959134, “Methods of determining nucleic acid structural information” (Bionano Genomics, Inc.) are described below.

The target of data set [1] is T1, M.BseCI DNA adenine methyltransferase (UniProt P43423 P43423:1-579). Nature of the data set: sequence-specific covalent labeling with Atto532AdoY cofactor seen in nanochannels; 285 nM enzyme, 10 mM Tris-HCl, 10 mM EDTA, 5 mM beta-mercaptoethanol, pH 7.4, 55 C, 5 h. As for the experimental part:
A solution (40 ul) of 2 uL T7 DNA (500 ng/ul), M.BseCI (285 nM) and Atto532AdoY (40 uM) in 10 mM Tris-HCl, 10 mM EDTA, and 5 mM β-mercaptoethanol, pH 7.4 were mixed with 4 uL NaOH (0.1M). The solution was incubated for 5 h at 55° C. Proteinase K (1 ul) was added and the solution incubated for 1 h at 37° C. DNA was ethanol precipitated and redissolved in 1×TE buffer (10 ul).
For DNA staining of the T7 DNA labeled in Example 5, above, a solution (50 ul) of DNA (10 ng/ul), YOYO-1 (500 nM) in 1× flow buffer was incubated for 4 h at 4° C. Subsequently, a freshly prepared solution (4 ul) of 4-nitrobenzoic alcohol (1.4 mM), Trolox (1.4 mM), protocatechuate-3,4-dioxygenase (0.36 uM), protocatechuic acid (50 ug) was mixed with 10 uL of the stained DNA (above) and was loaded onto an IrysChip™ and imaged using the Irys™ instrument. FIG. 4 represents an example of imaged, labeled T7 DNA molecules.

Data set [2] concerns the target T1, M.BseCI DNA adenine methyltransferase. Description: labeling with Atto532AdoY, 22x enzyme excess over sites, 55 C, 5 h; labeled DNA assembled into single contig aligned to reference. The procedure: A solution (40 ul) of E. coli DNA (500 ng), M.BseCI (22× excess over DNA sites) and Atto532AdoY (40 uM) in 10 mM Tris-HCl, 10 mM EDTA, and 5 mM beta-mercaptoethanol, pH 7.4 were mixed with 4 uL NaOH (0.1M). The solution was incubated for 5 h at 55° C. Proteinase K (1 ul) was added and the solution incubated for 1 h at 37° C. The DNA was dialyzed against 1×TE buffer and stained with YOYO-1 to a final concentration of 3.5-5 ng/ul.
A freshly prepared solution (4 ul) of 4-nitrobenzoic alcohol (1.4 mM), Trolox (1.4 mM), protocatechuate-3,4-dioxygenase (0.36 uM), protocatechuic acid (50 ug) was mixed with stained E. coli DNA of Example 7, 1× flow buffer and Tris (25 mM) and NaCl (10 mM) were added. The sample was loaded onto an IrysChip™ and imaged using the Irys™ instrument.
The E. coli DNA of Examples 7 and 8 was assembled and compared to a reference genome. The labeled E. coli DNA assembled into a single contig (FIG. 5, right contig) and aligned to a reference contig sequence (FIG. 5, left contig).

T1 sequence (P43423 whole entry, one chain of several): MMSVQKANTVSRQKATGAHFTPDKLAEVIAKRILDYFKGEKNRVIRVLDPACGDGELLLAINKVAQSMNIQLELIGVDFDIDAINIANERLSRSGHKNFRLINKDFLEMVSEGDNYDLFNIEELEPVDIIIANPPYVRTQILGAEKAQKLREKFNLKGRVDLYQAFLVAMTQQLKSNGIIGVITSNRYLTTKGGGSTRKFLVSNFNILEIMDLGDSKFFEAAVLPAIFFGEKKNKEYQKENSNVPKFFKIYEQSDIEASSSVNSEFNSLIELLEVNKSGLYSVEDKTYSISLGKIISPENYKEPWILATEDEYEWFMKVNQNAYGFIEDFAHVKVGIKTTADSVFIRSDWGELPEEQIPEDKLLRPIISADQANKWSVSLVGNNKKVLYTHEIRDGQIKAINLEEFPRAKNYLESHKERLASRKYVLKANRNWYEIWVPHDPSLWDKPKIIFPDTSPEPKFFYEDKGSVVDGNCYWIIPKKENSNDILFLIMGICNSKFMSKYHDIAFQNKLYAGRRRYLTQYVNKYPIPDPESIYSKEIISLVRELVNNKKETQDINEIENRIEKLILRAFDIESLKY

B1: T7 phage genomic DNA containing three M.BseCI sites (dsDNA)
DNA 1: ATCGAT
DNA 2: ATCGAT
Turning to B1, in data set [1], the binding result is reported as “binds”.

B2: E. coli genomic DNA containing M.BseCI sites (dsDNA)
DNA 1: ATCGAT
DNA 2: ATCGAT
In the case of B2, in data set [2], the binding result is given as “binds”.
